Measured values: publication PMC11826918, “Generation of antagonistic biparatopic anti-CD30 antibody from an agonistic antibody by precise epitope determination and utilization of structural characteristics of CD30 molecule” (Antibody Therapeutics, 2025)

Assays:
[1] = biological target: T1, maltose-binding protein-fused CD30 (Homo sapiens, UniProt P28908-1); assay: SPR; Biacore T200; cAb or BpAb captured on anti-human Fc (CM5), CD30-MBP flowed at 0, 2 and 20 nM (0, 20 and 200 nM for T426), contact 90 s, dissociation 300 s; 'at a rough level'; details: both partners purified
T1 construct: signal peptide in the construct; human CD30 extracellular domains, residues 1-336; also called CD30-MBP; source: Expi293, purified (Ni-NTA, Superdex200); not shown: MBP, C-terminal, kept
T1 sequence (P28908 19-336): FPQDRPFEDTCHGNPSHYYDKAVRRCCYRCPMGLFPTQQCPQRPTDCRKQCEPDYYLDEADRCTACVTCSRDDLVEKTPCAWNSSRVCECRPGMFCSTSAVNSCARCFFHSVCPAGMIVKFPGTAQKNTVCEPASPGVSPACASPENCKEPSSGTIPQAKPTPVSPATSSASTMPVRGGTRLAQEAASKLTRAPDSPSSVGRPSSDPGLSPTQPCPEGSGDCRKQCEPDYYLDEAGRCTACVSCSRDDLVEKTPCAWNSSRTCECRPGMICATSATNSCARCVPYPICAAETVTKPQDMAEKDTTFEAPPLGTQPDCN

CD30 fused to rabbit Fc = biological target: T2, CD30 fused to rabbit Fc (Homo sapiens, UniProt P28908-1); assay: ELISA; mutual competition: indicator cAb (0.75 μg/mL) captured on goat anti-human IgG Fc; CD30-rFc (50 ng/mL) pre-incubated overnight at 4 °C with competitor cAb (2.8 μg/mL); bound CD30-rFc probed with anti-rabbit IgG; details: one partner purified
T2 construct: signal peptide in the construct; human CD30 whole extracellular domains, NP_001234.3 amino acids 1-383; also called CD30-rFc; source: HEK293T, transfected, harvested from the culture supernatant; not shown: hinge and Fc (rabbit IgG1), C-terminal, kept
T2 sequence (P28908 19-383): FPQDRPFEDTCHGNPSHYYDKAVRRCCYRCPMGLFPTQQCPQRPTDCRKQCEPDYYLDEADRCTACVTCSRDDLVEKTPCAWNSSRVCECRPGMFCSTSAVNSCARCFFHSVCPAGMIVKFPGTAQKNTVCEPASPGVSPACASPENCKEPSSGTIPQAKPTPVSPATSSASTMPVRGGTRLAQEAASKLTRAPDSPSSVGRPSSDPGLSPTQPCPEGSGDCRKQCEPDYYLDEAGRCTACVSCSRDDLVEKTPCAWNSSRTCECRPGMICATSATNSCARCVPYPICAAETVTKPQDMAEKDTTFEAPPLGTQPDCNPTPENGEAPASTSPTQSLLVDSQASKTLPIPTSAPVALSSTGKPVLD

Binder	binding result [1]	binding result (CD30 fused to rabbit Fc)
T427 cAb (antibody, V domains shown) VH: QVQLQQPGTELVRPGASVKLSCKASGFSFTSYWMNWVKQRPGQGLEWIGMIHPSDSETRLNQKFKDRATLTVDKSSSTAYMQLSSPTSEDSAVYYCASEMDYYFAMDYWGQGTSVTVSS VL: DIVLTQSPTSLAVSLGQRATISCRASESVDSYGNSFMHWFQQKPGQPPKLLIYRASNLESGIPARFSGSGSWTDFTLTINPVEADDVATYYCQQSNEDPRTFGGGTKLEIK	binds	binds
T405 cAb (antibody, V domains shown) VH: QVQLQQIGAELVRPGASVKLSCKASGYTFNNYWINWVKQRPGQGLEWIGNIYPSDSRSNYNQKFKDKATLTVDKPSSTAYMQLSSPTSEDSAVYYCTLGSYWGQGTLVTVSA VL: not shown	binds	
AC10 cAb (antibody, V domains shown) VH: QIQLQQSGPEVVKPGASVKISCKASGYTFTDYYITWVKQKPGQGLEWIGWIYPGSGNTKYNEKFKGKATLTVDTSSSTAFMQLSSLTSEDTAVYFCANYGNYWFAYWGQGTQVTVSA VL: DIVLTQSPASLAVSLGQRATISCKASQSVDFDGDSYMNWYQQKPGQPPKVLIYAASNLESGIPARFSGSGSGTDFTLNIHPVEEEDAATYYCQQSNEDPWTFGGGTKLEIK	binds	binds
T25 cAb (antibody, V domains shown) VH: QVTLKESGPGILQPSQTLSLTCSFSGFSLNTSGVGVGWIRQPSGKGLEWLAHIWWDDDERYNPVLKSRLTISKDTSSNQVFLKIANVDTADSATYYCVRSMVAWFPYWGRGTLVTVSA VL: DIVMSQSPSSLAVSVGEKFTVNCKSSQSLLYSSNQKNFLAWYQQKPGQSPKLLIYWASTRESGVPDRFIGSGSGTDFTLTISSVKAEDLAVYYCQQHYRYPWTFGGGTKLEIK	binds	
T104 cAb (antibody, V domains shown) VH: QIQLVQSGPELKKPGETVKISCKASGYTFTDYSMHWVKQAPGKGLKWMGWINTETGEPTYADDFKGRFAFSLETSASTAYLQINNLKNEDTATYFCTEGYVFDFWGQGTTLTVSS VL: DILLTQSPAILSVSPGERVSFSCRASRSIGTSIHWYQQRTNGSPRLLINYASESISGIPSRFSGSGSGTDFTLSINSVESEDIADYYCQQSNSWPLTFGAGTKLELK	binds	
T105 cAb (antibody, V domains shown) VH: QVTLKESGPGILQPSQTLSLTCSFSGFSLSTSGMGVSWIRQPSGKDLEWLAHIYWDDDKRYNPSLKSRLTISKDTSSNQVFLKITSVDTADTATYYCARRADGLYFYLDVWGAGTTVTVSS VL: DIVMTQSQKFMSTSVGDRVSVTCKASQNVNTNVAWYQQKPGQSPEALIYSASYRYSGVPDRFTGSGSGTDFTLTISNVQSEDLAEYFCQQYNSYPLTFGSGTKLEIK	binds	binds
T6 cAb (antibody, V domains shown) VH: QVQLKESGPGLVTPSQSLSITCTVSGFSLSKYSIHWVRQPPGRGLEWLGMIWGVENTDYNSALKSRLSISKDNSKSQVFLKMNSLQSDDTAMYYCARKDLGLYGMNYWGQGISVTVSA VL: DIVMTQSQKFMSTSVGDRVSVTCKASQNVGTNVAWYQQKPGQSPKALFYSASYRYSGVPDRFIGSGSGTVFTLTISNVQSEDLAEYFCQQYNTYPLTFGSGTKLEIE	binds	
T107 cAb (antibody, V domains shown) VH: QVQLQQSGPELVRPGVSVKISCKGSGYSFPDYPLHWVKQSHAKSLEWIGIILTYSGNTNYNQNFKGKATMTVDTSSNTAYLELARLTSEDSAIYYCATFYYGYDGAFDYWGQGTTLTVSS VL: DIVMTQSPSSLTVTAGEKVTMSCKSSQSLLNSGNQKNYLTWYQQKPGQPPKLLIHWASTRESGVPDRFTGSGSGTDFILTITSVQAEDLAVYYCQNDYTYPLTFGGGTKLELK	binds	binds
T426 cAb (antibody, V domains shown) VH: EVQLQQSGAELVKPGASVKLSCTASGFNVKDTYVHWVKQRPEQGLEWIGRIDPANSDTKYDSKFQGKATTSADTSSNTAYLQLNSLTSEDTAVYYCASGTDDYYWYFDVWGAGTTVTVSS VL: DIVLTQSPASLAVSLGQRATISCRASKSVSTPAHTYMHWYQQKPGQPPKLLIYLASNLESGVPARFSGSGSGTDFTLNIHPVEVEDAATYYCQHSRVLPYTFGGGTKLEIK		binds
